Test results published in PMC3696110, “Hsp70 Oligomerization Is Mediated by an Interaction between the Interdomain Linker and the Substrate-Binding Domain” (PLoS ONE, 2013).
Where two headings read alike, the source gives them in different places.

Assays:
[1] = target: FL-Hsp70 2LD, full-length human Hsp70 with Leu395 and Leu397 substituted by aspartic residues (human) (UniProt P0DMV8); experiment: SEC; analytical SEC, Superdex 75 10/300 GL, 4 °C; 220 µM protein
[2] = test system: P0DMV8; experiment: SEC; analytical SEC, Superdex 75 10/300 GL, 4 °C, 50 mM Tris pH 7.4, 150 mM KCl, 5 mM MgCl2; 6 µM protein
[3] = test system: P0DMV8; experiment: SEC; analytical SEC, Superdex 75 10/300 GL, 4 °C, 50 mM Tris pH 7.4, 150 mM KCl, 5 mM MgCl2; 70 µM protein
[4] = test system: P0DMV8; experiment: native MS; nESI-MS, 150 mM ammonium acetate pH 7.4, protein 6 µM (6-15 µM); abundances from the most abundant charge states
[5] = target: SBD556 (384-556) of human Hsp70 with the L542Y mutation (human) (UniProt P0DMV8); experiment: SEC; analytical SEC, Superdex 75 10/300 GL, 4 °C, 50 mM Tris pH 7.4, 150 mM KCl, 5 mM MgCl2; 6 µM protein
[6] = target: SBD556 (384-556) of human Hsp70 with the L542Y mutation (human) (UniProt P0DMV8); experiment: SEC; analytical SEC, Superdex 75 10/300 GL, 4 °C, 50 mM Tris pH 7.4, 150 mM KCl, 5 mM MgCl2; 70 µM protein
[7] = target: SBD556 (384-556) of human Hsp70 with the L542Y mutation (human) (UniProt P0DMV8); experiment: native MS; nESI-MS, 150 mM ammonium acetate pH 7.4, protein 6 µM (6-15 µM); abundances from the most abundant charge states
[8] = target: dansyl-NR peptide (NRLLLTG, N-terminally labelled with dansyl); experiment: other fluorescence titration; chaperone titrated into 2 µM dansyl-NR peptide, 1 h at 25 °C, 50 mM Tris pH 7.4, 150 mM KCl, 5 mM MgCl2; single-site fit, apparent Kd
[9] = test system: P0DMV8; experiment: SEC; analytical SEC of SBD641 refolded after thermal denaturation; protein concentration of this panel not stated
[10] = test system: P0DMV8; experiment: SEC; analytical SEC after 1 h at room temperature with a 14-fold excess of NR peptide; protein concentration of this panel not stated
[11] = target: SBD641 (384-641), full-length substrate-binding domain of human Hsp70 with the interdomain linker (human) (UniProt P0DMV8); experiment: SEC; analytical SEC, Superdex 75 10/300 GL, 4 °C, 50 mM Tris pH 7.4, 150 mM KCl, 5 mM MgCl2; 6 µM protein
[12] = target: SBD641 (384-641), full-length substrate-binding domain of human Hsp70 with the interdomain linker (human) (UniProt P0DMV8); experiment: SEC; analytical SEC, Superdex 75 10/300 GL, 4 °C, 50 mM Tris pH 7.4, 150 mM KCl, 5 mM MgCl2; 70 µM protein
[13] = target: SBD641 (384-641), full-length substrate-binding domain of human Hsp70 with the interdomain linker (human) (UniProt P0DMV8); experiment: SEC; fraction of oligomeric species set beside DLS (Figure S3C), without NR peptide; 20 µM protein named for the panel
[14] = target: SBD641 (384-641), full-length substrate-binding domain of human Hsp70 with the interdomain linker (human) (UniProt P0DMV8); experiment: native MS + SEC; oligomerization constant estimated from the populations of Table 1; equilibrium of monomer, dimer and trimer
[15] = target: SBD641 (384-641), full-length substrate-binding domain of human Hsp70 with the interdomain linker (human) (UniProt P0DMV8); experiment: SEC; fraction of oligomeric species set beside DLS (Figure S3C), with 14-times excess of NR peptide; 20 µM SBD641 named for the panel
[16] = target: SBD641 (384-641), full-length substrate-binding domain of human Hsp70 with the interdomain linker (human) (UniProt P0DMV8); experiment: native MS; nESI-MS, 150 mM ammonium acetate pH 7.4, protein 6 µM (6-15 µM); abundances from the most abundant charge states
[17] = target: SBD641 (384-641), full-length substrate-binding domain of human Hsp70 with the interdomain linker (human) (UniProt P0DMV8); experiment: as above; remark: listed apart in the source
[18] = target: SBD641 (384-641), full-length substrate-binding domain of human Hsp70 with the interdomain linker (human) (UniProt P0DMV8); experiment: SEC; analytical SEC after 1 h at room temperature with a 14-fold excess of NR peptide; protein concentration of this panel not stated
[19] = target: SBD641 (384-641), full-length substrate-binding domain of human Hsp70 with the interdomain linker (human) (UniProt P0DMV8); experiment: SEC + other: dynamic light scattering; fraction of oligomers (SEC) and apparent hydrodynamic diameter (DLS) of SBD641 against protein concentration; extrapolation to 0.5 oligomer fraction
[20] = target: full-length human Hsp70 (Hsp70 1A) (human) (UniProt P0DMV8); experiment: SEC; analytical SEC, Superdex 75 10/300 GL, 4 °C; 220 µM protein
[21] = target: full-length human Hsp70 (Hsp70 1A) (human) (UniProt P0DMV8); experiment: SEC; analytical SEC, Superdex 75 10/300 GL, 4 °C, 50 mM Tris pH 7.4, 150 mM KCl, 5 mM MgCl2; 6 µM protein
[22] = target: full-length human Hsp70 (Hsp70 1A) (human) (UniProt P0DMV8); experiment: SEC; analytical SEC, Superdex 75 10/300 GL, 4 °C, 50 mM Tris pH 7.4, 150 mM KCl, 5 mM MgCl2; 70 µM protein
[23] = target: full-length human Hsp70 (Hsp70 1A) (human) (UniProt P0DMV8); experiment: native MS; nESI-MS, 150 mM ammonium acetate pH 7.4, protein 6 µM (6-15 µM); abundances from the most abundant charge states
[24] = target: ΔLSBD641 (394-641), SBD641 of human Hsp70 without the first ten residues of the interdomain linker (human) (UniProt P0DMV8); experiment: SEC; analytical SEC, Superdex 75 10/300 GL, 4 °C, 50 mM Tris pH 7.4, 150 mM KCl, 5 mM MgCl2; 6 µM protein
[25] = target: ΔLSBD641 (394-641), SBD641 of human Hsp70 without the first ten residues of the interdomain linker (human) (UniProt P0DMV8); experiment: SEC; analytical SEC, Superdex 75 10/300 GL, 4 °C, 50 mM Tris pH 7.4, 150 mM KCl, 5 mM MgCl2; 70 µM protein
[26] = target: ΔLSBD641 (394-641), SBD641 of human Hsp70 without the first ten residues of the interdomain linker (human) (UniProt P0DMV8); experiment: SEC; fraction of oligomeric species set beside DLS (Figure S3C), without NR peptide; 20 µM protein named for the panel
[27] = target: ΔLSBD641 (394-641), SBD641 of human Hsp70 without the first ten residues of the interdomain linker (human) (UniProt P0DMV8); experiment: native MS; nESI-MS, 150 mM ammonium acetate pH 7.4, protein 6 µM (6-15 µM); abundances from the most abundant charge states

Chain of FL-Hsp70 2LD, full-length human Hsp70 with Leu395 and Leu397 substituted by aspartic residues (P0DMV8 whole entry): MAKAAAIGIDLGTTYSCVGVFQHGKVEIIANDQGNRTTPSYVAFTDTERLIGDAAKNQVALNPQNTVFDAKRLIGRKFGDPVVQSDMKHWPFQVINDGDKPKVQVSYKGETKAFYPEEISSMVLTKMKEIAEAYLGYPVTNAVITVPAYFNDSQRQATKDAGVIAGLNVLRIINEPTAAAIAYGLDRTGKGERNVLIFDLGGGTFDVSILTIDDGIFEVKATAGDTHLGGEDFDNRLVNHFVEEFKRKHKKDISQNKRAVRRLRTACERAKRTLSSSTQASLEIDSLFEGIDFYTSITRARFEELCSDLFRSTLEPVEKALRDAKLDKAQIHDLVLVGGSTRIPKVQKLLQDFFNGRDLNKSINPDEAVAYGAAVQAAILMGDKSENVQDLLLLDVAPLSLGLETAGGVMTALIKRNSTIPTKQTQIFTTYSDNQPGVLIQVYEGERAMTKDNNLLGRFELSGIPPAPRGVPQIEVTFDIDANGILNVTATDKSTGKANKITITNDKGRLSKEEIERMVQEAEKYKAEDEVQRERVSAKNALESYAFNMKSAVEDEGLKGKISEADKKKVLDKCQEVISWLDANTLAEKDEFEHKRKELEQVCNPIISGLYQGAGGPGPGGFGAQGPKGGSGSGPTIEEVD

## FL-Hsp70 2LD, full-length human Hsp70 with Leu395 and Leu397 substituted by aspartic residues (from UniProt P0DMV8 1-641) (natural protein)
[1]
  % oligomeric species: < 9%

## SBD556 (384-556) of human Hsp70 with the L542Y mutation
[2]
  % monomer: 97%
[3]
  % monomer: 93%
[4]
  % monomer: 82%

## SBD556 (384-556) of human Hsp70 with the L542Y mutation (from UniProt P0DMV8 384-556) (domain or fragment)
[5]
  % dimer: 3%
  % total oligomers: 3%
[6]
  % dimer: 7%
  % total oligomers: 7%
[7]
  % dimer: 16%
  % total oligomers: 18%
  % trimer: 2%
[8]
  Kd: 53 µM

## SBD641 (384-641), full-length substrate-binding domain of human Hsp70 with the interdomain linker
[2]
  % monomer: 37%
[3]
  % monomer: 23%
[9]
  % monomer: a dramatic increase in the monomeric fraction of the refolded protein compared to the native protein (from 37% to 71%)
[4]
  % monomer: 46%
[10]
  % monomer: the monomeric fraction increases from 37% to 58% in the presence of peptide

## SBD641 (384-641), full-length substrate-binding domain of human Hsp70 with the interdomain linker (from UniProt P0DMV8 384-641) (domain or fragment)
[11]
  % dimer: 44%
  % total oligomers: 63%
[12]
  % dimer: 55%
  % higher-order oligomers: 22%
  % total oligomers: 77%
[13]
  fraction of oligomeric species: 0.7
[14]
  Kd: 5 to 10 µM
[15]
  fraction of oligomeric species: 0.5
[16]
  % dimer: 40%
  % total oligomers: 54%
  % trimer: 10%
[17]
  % tetramer: 2%
  % trimer: 12%
[18]
  % dimer: 24%
  % higher-order oligomers: 18%
[8]
  Kd: 11 µM
[19]
  Kd: 1 to 10 µM

## full-length human Hsp70 (Hsp70 1A)
[2]
  % monomer: 99%
[3]
  % monomer: 93%
[4]
  % monomer: 98%

## full-length human Hsp70 (Hsp70 1A) (from UniProt P0DMV8 1-641) (natural protein)
[20]
  % oligomeric species: 35%
[21]
  % dimer: 1%
  % total oligomers: 1%
[22]
  % dimer: 7%
  % oligomeric species: 10%
  % total oligomers: 7%
[23]
  % dimer: 2%
  % total oligomers: 2%
  % trimer: -0%
[8]
  Kd: 9 µM

## ΔLSBD641 (394-641), SBD641 of human Hsp70 without the first ten residues of the interdomain linker
[2]
  % monomer: 91%
[3]
  % monomer: 86%
[4]
  % monomer: 92%

## ΔLSBD641 (394-641), SBD641 of human Hsp70 without the first ten residues of the interdomain linker (from UniProt P0DMV8 394-641) (domain or fragment)
[24]
  % dimer: 9%
  % total oligomers: 9%
[25]
  % dimer: 14%
  % total oligomers: 14%
[26]
  fraction of oligomeric species: 0.1
[27]
  % dimer: 8%
  % total oligomers: 8%
  % trimer: -0%
[8]
  Kd: 8 µM
